Results reported in article PMC3289903.

Biological target: recombinant Tp0956 (non-lipidated, residues 2-302) (Treponema pallidum)
Experiment: AUC

recombinant Tp0956 (non-lipidated, residues 2-302) (Treponema pallidum), sequence (O83922 23-323 limits assumed): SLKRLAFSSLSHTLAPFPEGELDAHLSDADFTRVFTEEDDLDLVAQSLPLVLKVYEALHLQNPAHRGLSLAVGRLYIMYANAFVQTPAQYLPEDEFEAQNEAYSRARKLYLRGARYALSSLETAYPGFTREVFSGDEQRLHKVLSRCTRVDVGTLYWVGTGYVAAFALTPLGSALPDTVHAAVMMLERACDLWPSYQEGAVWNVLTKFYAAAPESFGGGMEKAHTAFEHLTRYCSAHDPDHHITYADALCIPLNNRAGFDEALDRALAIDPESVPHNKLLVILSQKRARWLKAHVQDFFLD

Substance: recombinant Tp0957 (non-lipidated, residues 7-328) (natural protein)
- Kd(1), first binding event (macroscopic): 60 nM
- cooperativity factor α2 (second binding event): 1.5
- cooperativity factor α3 (third binding event): 0.34
